Laboratory results taken from PMC6327041 (Nature Communications, 2019).
Read-outs that look alike come from different tables or passages of the source.

Molecular target: T1, KDM5A1-797 (Homo sapiens, UniProt P29375)
T1 construct: KDM5A1-797 was cloned into a pFASTBAC HTA vector; His (N, cleaved yes); made in house; host or cells: Sf21 insect cells (baculovirus)
T1 sequence (P29375 1-797): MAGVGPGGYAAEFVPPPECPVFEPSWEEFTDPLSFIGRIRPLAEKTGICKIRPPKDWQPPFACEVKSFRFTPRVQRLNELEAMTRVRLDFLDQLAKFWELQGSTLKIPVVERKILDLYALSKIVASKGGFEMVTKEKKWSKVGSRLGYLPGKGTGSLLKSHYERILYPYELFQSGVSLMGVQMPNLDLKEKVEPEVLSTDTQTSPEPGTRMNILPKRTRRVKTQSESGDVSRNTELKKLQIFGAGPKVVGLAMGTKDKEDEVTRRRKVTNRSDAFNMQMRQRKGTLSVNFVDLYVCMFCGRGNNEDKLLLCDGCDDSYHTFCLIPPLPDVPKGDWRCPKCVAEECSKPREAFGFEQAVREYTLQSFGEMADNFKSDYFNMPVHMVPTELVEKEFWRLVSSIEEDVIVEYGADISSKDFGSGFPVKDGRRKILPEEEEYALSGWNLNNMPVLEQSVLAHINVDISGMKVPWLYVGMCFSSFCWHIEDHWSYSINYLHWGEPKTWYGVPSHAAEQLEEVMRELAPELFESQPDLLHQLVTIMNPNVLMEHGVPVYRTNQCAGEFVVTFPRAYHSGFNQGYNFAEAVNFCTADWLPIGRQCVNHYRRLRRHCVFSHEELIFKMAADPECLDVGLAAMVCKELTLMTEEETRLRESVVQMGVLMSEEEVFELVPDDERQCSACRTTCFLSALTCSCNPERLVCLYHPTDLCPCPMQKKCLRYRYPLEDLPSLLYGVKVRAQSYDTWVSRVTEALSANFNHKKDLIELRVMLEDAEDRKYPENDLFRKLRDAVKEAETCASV
Test: KDM5A demethylation, FDH-coupled formaldehyde release assay
Type: biochemical
Details: for kcat / Km: n ≥ 3, s.e.m.
Procedure: WT KDM5A1-797 was expressed in Sf21 cells following Invitrogen Bac-to-Bac baculovirus expression system protocol. KDM5A1-797 was cloned into a pFASTBAC HTA vector. Purified bacmid was transfected in Sf21 cells. Approximately […] cells per well of a six-well dish were allowed to attach in 2 ml of SF-900 II SFM media containing 50 U ml^−1 penicillin and 50 μg ml^−1 streptomycin. While cells attached, 8 μl of Cellfectin II reagent (Invitrogen) in 100 μl of unsupplemented Grace’s medium was mixed with ~2–5 μg of bacmid in 100 μl of unsupplemented Grace’s medium and incubated for 15–30 min at 25 °C. Once cells were attached, media was removed and cells were washed with 2 ml of Grace’s unsupplemented media. The bacmid DNA:Cellfectin mixture was then diluted to 1 ml with Grace’s unsupplemented media and added to the well. Cells with bacmid:Cellfectin II mixture were incubated for 5 h at 27 °C. After 5 h of incubation, bacmid:Cellfectin mixture was removed and replaced with 2 ml of SF-900 II SFM 50 U ml^−1 penicillin and 50 μg ml^−1 streptomycin. Transfected cells were incubated 3–5 days or until signs of viral infection were observed. After transfection, the supernatant was spun down to remove the dead cells. The supernatant was then sterile filtered to obtain the P1 viral stock. To make P2, 20 ml of […] at ~2 × 10^6 cells per ml of sf21 was infected with 2 ml of P1 virus and incubated for 48–60 h. After 56 h, the cells were spun down and the supernatant was collected and sterile filtered to obtain P2 viral stock. Similarly, P3 viral stock from P2 viral stock was obtained. Generally, 1 l of Sf21 at 2 × 10^6 cells per ml was infected with ~40 ml of P3 virus for ~48–56 h. Cells were then collected and resuspended in the lysis buffer (25 mM HEPES pH 7.9, 350 mM NaCl, 5 mM KCl, 1.5 mM MgCl2, 10 mM imidazole, aprotinin 2 μg ml^−1, leupeptin 3 μg ml^−1, pepstatin 3 μg ml^−1, and 1 mM PMSF). Cells were homogenized by emulsiflex. After lysis, the supernatant was recovered by centrifuging at 35k r.p.m. for 45 min, and incubated with cobalt resin equilibrated in lysis buffer for 1 h at 4 °C. After incubation the resin was washed with wash buffer (25 mM HEPES, pH 7.9, 350 mM NaCl, 0.5 mM MgCl2, 10% glycerol, 10 mM imidazole, aprotinin 2 μg ml^−1, leupeptin 3 μg ml^−1, pepstatin 3 μg ml^−1, and 1 mM PMSF). His-KDM5A was eluted with elution buffer (25 mM HEPES pH 7.9, 100 mM NaCl, 0.5 mM MgCl2, 10% glycerol, 100 mM imidazole, aprotinin 2 μg ml^−1, leupeptin 3 μg ml^−1, pepstatin 3 μg ml^−1, and 1 mM PMSF). The His-tag was removed by overnight incubation with TEV protease at 4 °C in the dialysis buffer (25 mM HEPES, pH 7.9, 100 mM NaCl, and 2 mM DTT). After cleavage, protein was further purified by size-exclusion chromatography using a S200 column. Purified KDM5A was eluted, aliquoted and stored at −80 °C in 40 mM HEPES, pH 7.9, 50 mM KCl.
Michaelis–Menten parameters were determined using Graphpad Prism.

[1] = 38 µM H3 10mer effector peptide vs none
[2] = KDM5A1-797 WT (Table 3), no effector

change of kcat on addition of effector peptide [1]	reduction in Km on addition of effector peptide [1]	kcat/Km (+H3 10mer peptide (38 µM))	kcat (+H3 10mer peptide (38 µM), 1 μM KDM5A, pH 7.5, room temperature)	Km (+H3 10mer peptide (38 µM), 1 μM KDM5A, pH 7.5, room temperature, read-out: Km)	kcat/Km [2]	kcat [2]	Km (KDM5A1-797 WT (Table 3), no effector, read-out: Km)	kcat/Km (No effector peptide)	kcat (No effector peptide, 1 μM KDM5A, pH 7.5, room temperature)	Km (No effector peptide, 1 μM KDM5A, pH 7.5, room temperature, read-out: Km)	rank of Km reduction among effector peptides (Ac-H3K4me3 21mer substrate, saturating effector peptide)	Km (Km of Ac-H3K4me3 21mer with saturating modified H3 10mer effector (20× Kd; H3K4me2 10× Kd), 1 μM KDM5A, 50 mM HEPES, 50 mM KCl, pH 7.5, room temperature, read-out: Demethylase activity Km with effector peptide (Fig. 4a))	Substance
kcat remains similar	fivefold	2430 ± 200 M⁻¹ s⁻¹	0.0408 ± 0.00067 s⁻¹	16.8 ± 1.1 µM	490 ± 55 M⁻¹ s⁻¹	0.047 ± 0.0013 s⁻¹	95.5 ± 7.6 µM	490 ± 55 M⁻¹ s⁻¹	0.047 ± 0.001 s⁻¹	95.5 ± 7.6 µM	–	–	Ac-H3K4me3 21mer: N-terminally acetylated 21mer H3K4me3 peptide, catalytic domain substrate
–	–	–	–	–	–	–	–	–	–	–	highest reduction in Km	16.8 ± 1.1 µM	H3: unmodified N-terminal H3 tail 10mer peptide (H3 Ala1-Ser10), PHD1 effector ligand
